Measured values reported in patent publication US20050085418A1 (CELLTECH R AND D, published 2005).
Each block holds one molecule with its values, some of them ahead of it.

B2: purified human sclerostin-FLAG® fusion protein (other, UniProt Q9BQB4 24-213, looked up)
chain: QGWQAFKNDATEIIPELGEYPEPPPELENNKTMNRAENGGRPPHHPFETKDVSEYSCRELHFTRYVTDGPCRSAKPVTELVCSGQCGPARLLPNAIGRGKWWRPSGPDFRCIPDRYRAQRVQLLCPGGEAPRARKVRLVASCKCKRLTRFHNQSELKDFGTEAARPQKGRKPRPRARSAKANQAELENAY
notes: Immobilised on CM5 chips (200 and 400 RU) or on anti-FLAG M2 agarose beads; also called FLAG®-Beer; FLAG®-tagged sclerostin; not shown: FLAG tag

Assays:
[1] = target: purified human sclerostin-FLAG® fusion protein (human) (UniProt Q9BQB4); test: SPR (Biacore), immobilised sclerostin
[2] = target: B2; test: SPR (Biacore), immobilised sclerostin
Method: The running buffer for Biacore analysis was HBS-EP CMD (10 mM HEPES, 150 mM NaCl, 3 mM EDTA, 0.005 % polysorbate 20, and 1 mg/ml carboxyl-methyl dextran). […] BMP proteins were diluted in running buffer and injected over the sensor chip using the Biacore 3000 instrumentation. The data was processed using the Bia-evaluation software (Biacore) by first correcting for background binding in a non-functionalized flow cell and analyzing the resulting binding curves for on/off rates.

Noggin-Fc fusion protein [3] = target: T1, Noggin-Fc fusion protein (murine, UniProt P97466 28-232, limits assumed); test: SPR, chip-immobilised recombinant human sclerostin, graded concentrations of recombinant murine noggin (FIG. 2B)
T1 construct: also called recombinant murine noggin; not shown: Fc portion, captured and detected with anti-human Fc antibodies
T1 sequence (looked up): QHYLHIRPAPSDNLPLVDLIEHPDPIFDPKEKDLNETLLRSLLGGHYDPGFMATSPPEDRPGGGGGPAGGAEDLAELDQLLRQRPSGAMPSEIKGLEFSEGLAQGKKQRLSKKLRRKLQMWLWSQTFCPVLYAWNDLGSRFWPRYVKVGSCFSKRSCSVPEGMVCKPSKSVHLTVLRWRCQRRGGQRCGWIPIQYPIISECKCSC
Method: (§1) The running buffer for Biacore analysis was HBS-EP CMD (10 mM HEPES, 150 mM NaCl, 3 mM EDTA, 0.005% polysorbate 20, and 1 mg/ml carboxyl-methyl dextran). […] The data was processed using the Bia-evaluation software by first correcting for background binding in a non-functionalized flow cell and analyzing the resulting binding curves for on/off rates.

[4] = target: T2, recombinant murine chordin (murine, UniProt Q9Z0E2 27-948, limits assumed); test: SPR, chip-immobilised recombinant human sclerostin, graded concentrations of recombinant murine chordin (FIG. 2A)
T2 sequence (looked up): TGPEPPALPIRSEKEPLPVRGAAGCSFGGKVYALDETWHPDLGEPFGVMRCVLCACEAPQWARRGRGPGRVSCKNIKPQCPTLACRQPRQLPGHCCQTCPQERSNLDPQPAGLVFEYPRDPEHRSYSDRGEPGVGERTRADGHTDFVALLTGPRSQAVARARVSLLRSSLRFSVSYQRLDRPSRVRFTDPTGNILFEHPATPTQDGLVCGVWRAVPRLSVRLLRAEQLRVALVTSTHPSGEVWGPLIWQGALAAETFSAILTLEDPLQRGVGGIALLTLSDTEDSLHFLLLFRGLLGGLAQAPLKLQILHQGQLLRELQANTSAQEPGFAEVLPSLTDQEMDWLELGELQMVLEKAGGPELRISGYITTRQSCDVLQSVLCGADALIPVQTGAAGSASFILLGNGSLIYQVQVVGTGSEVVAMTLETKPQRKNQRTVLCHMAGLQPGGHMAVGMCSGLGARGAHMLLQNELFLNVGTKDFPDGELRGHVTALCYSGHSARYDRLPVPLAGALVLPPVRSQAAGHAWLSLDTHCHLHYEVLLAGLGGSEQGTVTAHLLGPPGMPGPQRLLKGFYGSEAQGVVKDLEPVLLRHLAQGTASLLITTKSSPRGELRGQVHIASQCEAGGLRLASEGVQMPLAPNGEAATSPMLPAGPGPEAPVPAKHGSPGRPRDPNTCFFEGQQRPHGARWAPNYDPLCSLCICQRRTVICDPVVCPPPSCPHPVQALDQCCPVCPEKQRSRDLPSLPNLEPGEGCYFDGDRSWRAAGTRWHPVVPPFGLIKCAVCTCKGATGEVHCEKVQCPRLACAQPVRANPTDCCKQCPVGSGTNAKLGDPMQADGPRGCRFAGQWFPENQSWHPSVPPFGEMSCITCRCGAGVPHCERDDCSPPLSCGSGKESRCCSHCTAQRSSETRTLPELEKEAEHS
Method: as §1

[5] = target: T2, recombinant murine chordin; test: SPR (Biacore), human sclerostin immobilised on the chip, rmChordin injected at 0.62 to 10 ug/ml [box under the left panel]
Noggin-Fc fusion protein [6] = target: T1, Noggin-Fc fusion protein; test: SPR (Biacore), human sclerostin immobilised on the chip, rmNoggin injected at 0.31 to 10 ug/ml [box under the right panel]

Kd [1]: < 15 nM
Molecule: BMP-4 (ligand)

Kd [1]: < 15 nM
Molecule: BMP-7 (ligand)

More lines, now with the values behind:

Molecule: BMP-5 (ligand)
Kd [1]: < 15 nM

B1: BMP-2 (ligand)
chain: QAKHKQRKRLKSSCKRHPLYVDFSDVGWNDWIVAPPGYHAFYCHGECPFPLADHLNSTNHAIVQTLVNSVNSKIPKACCVPTELSAISMLYLDENEKVVLKNYQDMVVEGCGCR
modifications: Disulfide-linked homodimer; one copy of the mature chain is given.
notes: Bought recombinant protein; also called recombinant BMP protein (R&D Systems)
Kd [2]: < 10 nM

Molecule: B2
Kd (Noggin-Fc fusion protein [3]): 2.92 nM
Kd [4]: 1.76 nM
koff [5]: 0.00209 s⁻¹
kon [5]: 1.18e+06 M⁻¹ s⁻¹
koff (Noggin-Fc fusion protein [6]): 0.00435 s⁻¹
kon (Noggin-Fc fusion protein [6]): 1.46e+06 M⁻¹ s⁻¹
